No end group written: not given here.

Here are results for five sequences from US20150258192A1, “COMPOSITIONS AND METHODS FOR PREVENTING OR TREATING CHRONIC LUNG ALLOGRAFT DYSFUNCTION (CLAD) AND IDIOPATHIC PULMONARY FIBROSIS (IPF)” (priority 2014, published 2015).

Holding throughout (test): Kinase Profiling Assay
Type in all cases: biochemical
Holding throughout (conditions): peptide 100 μM

The target of one assay is T1, ZAP-70(h) (Homo sapiens, UniProt P43403).
T1 sequence (P43403 1-619): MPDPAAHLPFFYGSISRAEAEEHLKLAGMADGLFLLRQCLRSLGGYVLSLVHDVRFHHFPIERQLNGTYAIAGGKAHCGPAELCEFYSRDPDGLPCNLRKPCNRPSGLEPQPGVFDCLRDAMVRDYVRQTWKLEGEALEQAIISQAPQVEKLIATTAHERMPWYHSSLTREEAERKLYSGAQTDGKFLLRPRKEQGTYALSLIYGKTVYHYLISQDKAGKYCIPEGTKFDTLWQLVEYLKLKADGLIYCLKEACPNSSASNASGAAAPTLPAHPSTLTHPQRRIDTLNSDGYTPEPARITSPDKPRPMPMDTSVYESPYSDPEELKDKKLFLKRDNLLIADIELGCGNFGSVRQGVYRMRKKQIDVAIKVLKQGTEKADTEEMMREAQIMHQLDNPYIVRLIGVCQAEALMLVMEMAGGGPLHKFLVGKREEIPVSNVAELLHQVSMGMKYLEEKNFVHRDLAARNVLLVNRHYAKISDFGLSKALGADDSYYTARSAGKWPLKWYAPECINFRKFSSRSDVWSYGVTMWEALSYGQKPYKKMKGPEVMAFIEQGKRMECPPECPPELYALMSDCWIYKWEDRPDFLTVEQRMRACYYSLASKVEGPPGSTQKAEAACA
In short, it runs like this: (§1)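 In this 266-kinase specificity panel, every measurement was duplicated. Transfer of labeled phosphate from ATP to a cationic substrate was quantified after the substrate adhered to an anionic filter membrane and was scintillation-counted, then related to a full-activity control.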

The target of the next assay is T2, MKK7β(h) (Homo sapiens, UniProt O14733).
T2 construct: purchased Millipore
T2 sequence (O14733 1-419): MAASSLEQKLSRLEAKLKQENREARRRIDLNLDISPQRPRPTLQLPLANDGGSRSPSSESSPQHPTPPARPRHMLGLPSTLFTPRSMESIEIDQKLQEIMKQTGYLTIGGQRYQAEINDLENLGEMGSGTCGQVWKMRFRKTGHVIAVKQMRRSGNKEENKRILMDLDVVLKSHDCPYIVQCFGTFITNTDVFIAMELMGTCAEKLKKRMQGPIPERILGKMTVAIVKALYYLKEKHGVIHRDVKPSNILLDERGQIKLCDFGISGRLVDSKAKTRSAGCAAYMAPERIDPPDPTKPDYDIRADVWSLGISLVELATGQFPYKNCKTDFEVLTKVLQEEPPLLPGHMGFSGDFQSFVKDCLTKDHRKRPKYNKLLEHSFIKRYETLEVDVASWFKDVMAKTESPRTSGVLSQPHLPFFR
In short, it runs like this:
as §1

The target in the next assay is Pim-2(h) (Homo sapiens, UniProt Q9P1W9). In short, it runs like this:
as §1

Another assay concerns the target T3, SAPK2b(h) (Homo sapiens, UniProt Q15759).
T3 construct: purchased Millipore
In short, it runs like this: as §1

In another assay the target is T4, JAK3(h) (Homo sapiens, UniProt P52333).
T4 construct: purchased Millipore
T4 sequence (P52333 1-1124): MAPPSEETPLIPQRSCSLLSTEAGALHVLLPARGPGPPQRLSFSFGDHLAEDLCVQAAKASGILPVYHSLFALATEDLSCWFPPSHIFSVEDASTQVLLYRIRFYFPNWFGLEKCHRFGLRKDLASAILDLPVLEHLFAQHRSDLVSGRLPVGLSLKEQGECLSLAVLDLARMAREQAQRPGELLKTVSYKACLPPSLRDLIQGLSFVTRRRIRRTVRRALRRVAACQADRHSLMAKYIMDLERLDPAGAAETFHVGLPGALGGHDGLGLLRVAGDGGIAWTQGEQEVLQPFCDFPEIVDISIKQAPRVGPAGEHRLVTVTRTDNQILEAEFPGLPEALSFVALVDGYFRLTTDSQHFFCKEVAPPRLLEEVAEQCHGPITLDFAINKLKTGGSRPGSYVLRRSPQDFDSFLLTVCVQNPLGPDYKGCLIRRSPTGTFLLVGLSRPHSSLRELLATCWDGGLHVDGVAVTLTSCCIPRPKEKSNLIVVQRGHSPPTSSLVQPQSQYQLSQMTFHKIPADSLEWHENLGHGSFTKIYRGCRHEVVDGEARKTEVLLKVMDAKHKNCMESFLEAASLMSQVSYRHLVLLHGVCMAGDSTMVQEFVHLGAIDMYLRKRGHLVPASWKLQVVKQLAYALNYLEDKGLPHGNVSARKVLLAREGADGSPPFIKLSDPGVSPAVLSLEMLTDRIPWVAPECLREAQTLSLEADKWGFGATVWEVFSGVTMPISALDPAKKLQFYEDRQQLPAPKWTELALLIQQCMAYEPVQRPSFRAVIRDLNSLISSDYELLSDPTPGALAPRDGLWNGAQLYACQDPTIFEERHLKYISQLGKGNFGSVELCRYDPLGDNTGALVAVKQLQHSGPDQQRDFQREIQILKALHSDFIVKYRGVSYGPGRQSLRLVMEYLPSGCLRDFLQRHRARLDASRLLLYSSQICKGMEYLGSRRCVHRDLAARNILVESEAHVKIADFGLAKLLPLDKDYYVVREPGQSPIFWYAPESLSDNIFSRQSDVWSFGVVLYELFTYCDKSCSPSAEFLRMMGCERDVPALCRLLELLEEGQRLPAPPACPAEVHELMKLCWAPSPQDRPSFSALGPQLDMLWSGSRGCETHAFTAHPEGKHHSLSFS
In short, it runs like this: as §1

T3 sequence (Q15759 whole entry): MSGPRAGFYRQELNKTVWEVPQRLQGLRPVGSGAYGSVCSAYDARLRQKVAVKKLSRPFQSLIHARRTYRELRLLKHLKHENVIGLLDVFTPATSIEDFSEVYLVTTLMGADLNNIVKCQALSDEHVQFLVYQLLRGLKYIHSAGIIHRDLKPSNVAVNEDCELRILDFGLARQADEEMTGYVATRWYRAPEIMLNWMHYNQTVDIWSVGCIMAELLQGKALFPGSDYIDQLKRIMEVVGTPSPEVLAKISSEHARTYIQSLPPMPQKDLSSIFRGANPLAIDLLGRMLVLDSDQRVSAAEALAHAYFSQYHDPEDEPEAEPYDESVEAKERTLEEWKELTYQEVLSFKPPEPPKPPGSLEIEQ
Sequence of Pim-2(h) (Q9P1W9 whole entry): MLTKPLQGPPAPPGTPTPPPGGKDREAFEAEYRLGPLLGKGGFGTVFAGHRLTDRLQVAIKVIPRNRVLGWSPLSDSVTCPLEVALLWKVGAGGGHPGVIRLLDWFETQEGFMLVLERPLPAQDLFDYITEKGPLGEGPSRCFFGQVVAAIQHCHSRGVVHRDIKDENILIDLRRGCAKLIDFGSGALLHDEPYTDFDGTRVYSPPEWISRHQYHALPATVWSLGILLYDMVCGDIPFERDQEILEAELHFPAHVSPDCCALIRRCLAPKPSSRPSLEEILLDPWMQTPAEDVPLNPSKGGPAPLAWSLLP

With FAKLAARLYRKALARQLGVAA [MMI-0300], the “% activity” value with ZAP-70(h) was found to be 75%; in the assay with MKK7β(h) it was 100%; with Pim-2(h), 76%; with SAPK2b(h) it was 81%.

With “HRRIKAWLKKIKALARQLGVAA (Mammal) [MMI-0500]”, the “% activity” value with ZAP-70(h) turned out to be 1%; with Pim-2(h) it was 46%; with JAK3(h), 95%; with SAPK2b(h), 42%.

As to KAFAKLAARLYRKALARQLGVAA [MMI-0400], the “% activity” value with ZAP-70(h) is 33%; with MKK7β(h), 94%; in the assay with Pim-2(h), 92%; with JAK3(h), 122%; with SAPK2b(h) it was 82%.

For the sequence YARAAARQARAKALARQLGVAA [MMI-0100], the “% activity” value on ZAP-70(h) worked out at 79%; on MKK7β(h), 137%; at JAK3(h), 150%.

As for “YARAAARQARAKALNRQLGVA (Mammal) [MMI-0200]”, the “% activity” value in the assay with ZAP-70(h) was found to be 58%; in the assay with Pim-2(h) it was 74%; with SAPK2b(h), 95%.
